For orientation: Kd means the concentration at which binding is half-saturated.

The target of test [1] is T1, recombinant cynomolgus monkey CD38-ECD-C-his protein (cynomolgus monkey, UniProt Q5VAN0 45-301).
T1 construct: made in house; Q5VAN0 residues 43-301 (residue 44 deleted) with C-terminal 6-His; also called cynomolgus monkey CD38-C-His; recombinant cynomolgus monkey CD38 protein
Nature of the test: SPR, Fab as analyte, captured cynomolgus CD38-his.

In test [2] the target is T2, Biotinylated Human CD38 Protein, Avitag, His Tag (Acrobiosystems CD8-H82E7) (human, UniProt P28907 43-300, biotinylated).
T2 construct: bought protein; also called biotinylated recombinant human CD38 protein; human CD38-avi-his
Nature of the test: SPR, Fab as analyte, immobilised biotinylated human CD38.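 Also: biacore T200 at 25 °C, single-cycle kinetics with Fab from 7.8 to 2000 nM, 3 min association then 5 min dissociation, fitted with a 1:1 Langmuir model.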

Test [3] deals with T3, human CD3 on cells (HPB-ALL cells, primary human T cells) (human, UniProt P07766 23-207).
T3 construct: whole, on cells; only the epsilon chain is written
Nature of the test: flow cytometry, human CD4+ T cells. For orientation: A flow cytometer gives signals particle by particle.

T3 sequence (P07766 23-207): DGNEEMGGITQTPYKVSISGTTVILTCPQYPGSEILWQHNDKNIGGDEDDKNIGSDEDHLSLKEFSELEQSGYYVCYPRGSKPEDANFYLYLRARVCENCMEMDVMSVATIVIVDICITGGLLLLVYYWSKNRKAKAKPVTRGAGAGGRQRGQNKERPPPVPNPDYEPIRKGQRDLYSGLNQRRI

B1: Anti-CD38-UCP01-F1 Fab (Fab, V domains shown)
VH: QVQLVQSGAEVKKPGSSVKVSCKASGGVFSLYTITWVRQAPGQGLEWMGSIIPLLGDPEYAQKFQGRVTITADESTSTAYMELSSLRSEDTAVYYCARYPYPYGSKYFDIWGQGTLVTVSS
VL: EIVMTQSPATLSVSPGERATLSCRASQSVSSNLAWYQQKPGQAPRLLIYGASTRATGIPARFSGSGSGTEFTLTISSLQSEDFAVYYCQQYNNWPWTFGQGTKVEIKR
notes: Fab
Regarding B1, the equilibrium dissociation constant (Kd) in test [1] worked out at 393 nM; in test [2] it was 429 nM.

B2: Anti-CD38-UCP03-E3 Fab (Fab, V domains shown)
VH: QVQLVQSGAEVKKPGSSVKVSCKASGGSFSIYAISWVRQAPGQGLEWMGGIIPNSGDTDYAQKFQGRVTITADESTSTAYMELSSLRSEDTAVYYCARGPYDSYGESYFDYWGQGTLVTVSS
VL: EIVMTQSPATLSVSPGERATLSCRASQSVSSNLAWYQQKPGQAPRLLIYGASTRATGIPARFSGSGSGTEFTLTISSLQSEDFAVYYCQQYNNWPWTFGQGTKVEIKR
notes: Fab
For the molecule B2, the Kd in test [1] was found to be 195 nM; in test [2] it was 300 nM.

B3: Anti-CD38-UCP01-E2 FAB (Fab, V domains shown)
VH: QVQLVQSGAEVKKPGSSVKVSCKASGGSFSNYAIGWVRQAPGQGLEWMGRIIPVFGSAHYAQKFQGRVTITADESTSTAYMELSSLRSEDTAVYYCARGLGYYLYSSYYFDIWGQGTLVTVSS
VL: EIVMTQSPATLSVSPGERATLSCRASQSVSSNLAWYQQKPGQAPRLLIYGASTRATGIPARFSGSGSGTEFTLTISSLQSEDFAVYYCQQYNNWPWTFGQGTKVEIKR
notes: Fab; also called anti-CD38-E2; anti-CD38-E2 Fab
In the case of B3, the dissociation constant (Kd) in test [1] is 89 nM; in test [2], 110 nM.

B4: Anti-CD38-UCP02-F2 Fab (Fab, V domains shown)
VH: QVQLVQSGAEVKKPGSSVKVSCKASGDVFSLLAIGWVRQAPGQGLEWMGRIIPSLDATHYAQKFQGRVTITADESTSTAYMELSSLRSEDTAVYYCARGRDVLRSYYFDIWGQGTLVTVSS
VL: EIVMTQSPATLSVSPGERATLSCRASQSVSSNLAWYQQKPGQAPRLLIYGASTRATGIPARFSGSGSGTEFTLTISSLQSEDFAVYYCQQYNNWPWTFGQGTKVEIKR
notes: Fab
On to B4, for which the equilibrium dissociation constant (Kd) in test [1] was found to be 14 nM; in test [2], 14.2 nM.

B5: Anti-CD38-UCP03-H2 Fab (Fab, V domains shown)
VH: QVQLVQSGAEVKKPGSSVKVSCKASGGEFSIYVISWVRQAPGQGLEWMGRVIPSTGDTNYAQKFQGRVTITADESTSTAYMELSSLRSEDTAVYYCARGKAYYSGWLAIWGQGTLVTVSS
VL: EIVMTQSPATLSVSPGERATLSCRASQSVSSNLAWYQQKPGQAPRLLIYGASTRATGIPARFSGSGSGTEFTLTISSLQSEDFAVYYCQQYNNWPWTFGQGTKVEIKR
notes: Fab
As for B5, the values for the dissociation constant Kd in test [1] and in test [2] were 672 nM and 1850 nM, respectively.

B6: Anti-CD38-UCP01-G1 Fab (Fab, V domains shown)
VH: QVQLVQSGAEVKKPGSSVKVSCKASGGGFSKYFITWVRQAPGQGLEWMGGVIPKIGYTSYAQKFQGRVTITADESTSTAYMELSSLRSEDTAVYYCARGSDDYASYSPLDSWGQGTLVTVSS
VL: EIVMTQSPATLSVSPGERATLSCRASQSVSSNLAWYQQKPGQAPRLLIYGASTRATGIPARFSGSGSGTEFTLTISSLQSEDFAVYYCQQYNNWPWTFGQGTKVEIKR
notes: Fab
As to B6, the equilibrium dissociation constant (Kd) amounted to 283 nM in test [1] and 1120 nM in test [2].

B7: Anti-CD38-UCP02-H1 Fab (Fab, V domains shown)
VH: QVQLVQSGAEVKKPGSSVKVSCKASGDKFNTYAISWVRQAPGQGLEWMGGITPRYDYAHYAQKFQGRVTITADESTSTAYMELSSLRSEDTAVYYCARSWGFRAGYLDYWGQGTLVTVSS
VL: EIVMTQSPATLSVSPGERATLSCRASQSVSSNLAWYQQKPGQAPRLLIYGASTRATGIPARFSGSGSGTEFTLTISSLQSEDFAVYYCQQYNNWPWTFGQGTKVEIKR
notes: Fab
Take B7: the Kd in test [1] was 2.7 nM; in test [2], 154 nM.

B8: Anti-CD38-UCP01-C2 Fab (Fab, V domains shown)
VH: QVQLVQSGAEVKKPGSSVKVSCKASGGYLGIYAISWVRQAPGQGLEWMGRIIPILGEADYAQKFQGRVTITADESTSTAYMELSSLRSEDTAVYYCARGGVWWDYWGQGTLVTVSS
VL: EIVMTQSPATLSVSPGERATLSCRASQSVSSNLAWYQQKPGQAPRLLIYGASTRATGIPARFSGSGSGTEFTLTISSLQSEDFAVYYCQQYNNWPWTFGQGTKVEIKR
notes: Fab
For B8, the Kd in test [1] came out at 53.5 nM; in test [2] it was 85.3 nM.

B9: Anti-CD38-UCP01-H1 Fab (Fab, V domains shown)
VH: QVQLVQSGAEVKKPGSSVKVSCKASGDFFSGYAINWVRQAPGQGLEWMGRIIPLLGDTYYAQKFQGRVTITADESTSTAYMELSSLRSEDTAVYYCARSAAGWFAYWGQGTLVTVSS
VL: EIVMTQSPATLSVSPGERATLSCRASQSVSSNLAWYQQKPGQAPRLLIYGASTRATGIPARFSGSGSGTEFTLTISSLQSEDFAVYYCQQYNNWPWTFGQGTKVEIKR
notes: Fab
As for B9, the Kd turned out to be 352 nM in test [1] and 437 nM in test [2].

B10: Anti-CD38-UCP02-E5 Fab (Fab, V domains shown)
VH: QVQLVQSGAEVKKPGSSVKVSCKASGGGFRHYFISWVRQAPGQGLEWMGGIIPAAATPYYAQKFQGRVTITADESTSTAYMELSSLRSEDTAVYYCARGYWHWFDYWGQGTLVTVSS
VL: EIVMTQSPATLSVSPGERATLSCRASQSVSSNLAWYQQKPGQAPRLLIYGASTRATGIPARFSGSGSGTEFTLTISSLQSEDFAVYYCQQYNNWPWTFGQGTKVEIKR
notes: Fab
The molecule B10 displayed a dissociation constant Kd in test [2] of 0.03 nM.

B11: Anti-CD38-UCP03-H3 Fab (Fab, V domains shown)
VH: QVQLVQSGAEVKKPGSSVKVSCKASGGVFSQFPISWVRQAPGQGLEWMGGIIAGYGATEYAQKFQGRVTITADESTSTAYMELSSLRSEDTAVYYCARVYGGIDWGQGTLVTVSS
VL: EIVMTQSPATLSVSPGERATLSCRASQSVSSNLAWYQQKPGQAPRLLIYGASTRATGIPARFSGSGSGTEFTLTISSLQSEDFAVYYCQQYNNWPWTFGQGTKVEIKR
notes: Fab
For B11, the values for the dissociation constant Kd in test [1] and in test [2] were 178 nM and 810 nM, respectively.

B12: Anti-CD38-UCP03-B6 Fab (Fab, V domains shown)
VH: QVQLVQSGAEVKKPGSSVKVSCKASGGHISNSAINWVRQAPGQGLEWMGRVIPVIDDAYYAQKFQGRVTITADESTSTAYMELSSLRSEDTAVYYCARSRGYYGSFYFDIWGQGTLVTVSS
VL: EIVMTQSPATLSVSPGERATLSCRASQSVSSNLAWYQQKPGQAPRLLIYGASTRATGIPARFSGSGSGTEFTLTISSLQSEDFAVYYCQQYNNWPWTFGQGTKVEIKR
notes: Fab
For B12, the dissociation constant (Kd) in test [1] was 829 nM; in test [2] it was 225 nM.

B13: Anti-CD38-UCP02-F5 Fab (Fab, V domains shown)
VH: QVQLVQSGAEVKKPGSSVKVSCKASGGVFSYYTISWVRQAPGQGLEWMGRIIPSLGATHYAQKFQGRVTITADESTSTAYMELSSLRSEDTAVYYCARSDSFYYAYYMDLWGQGTLVTVSS
VL: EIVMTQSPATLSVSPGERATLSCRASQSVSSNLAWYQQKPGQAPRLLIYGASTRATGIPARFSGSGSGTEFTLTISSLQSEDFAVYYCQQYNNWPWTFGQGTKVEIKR
notes: Fab
For the molecule B13, the Kd in test [1] was found to be 55.2 nM; in test [2], 71.1 nM.

B14: Anti-CD38-UCP01-B1 Fab (Fab, V domains shown)
VH: QVQLVQSGAEVKKPGSSVKVSCKASGGDFDQYYISWVRQAPGQGLEWMGRIIPTLGDSQYAQKFQGRVTITADESTSTAYMELSSLRSEDTAVYYCARAVIVSPYYYIYVFDVWGQGTLVTVSS
VL: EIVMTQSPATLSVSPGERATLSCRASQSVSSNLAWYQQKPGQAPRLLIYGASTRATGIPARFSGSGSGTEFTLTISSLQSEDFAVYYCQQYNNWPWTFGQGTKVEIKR
notes: Fab
Regarding B14, the Kd came to 102 nM in test [1] and 193 nM in test [2].

B15: Anti-CD38-UCP02-D1 Fab (Fab, V domains shown)
VH: QVQLVQSGAEVKKPGSSVKVSCKASGGDFDQYYISWVRQAPGQGLEWMGRIIPTLGDSQYAQKFQGRVTITADESTSTAYMELSSLRSEDTAVYYCARAVIVSPYYYIYVFDVWGQGTLVTVSS
VL: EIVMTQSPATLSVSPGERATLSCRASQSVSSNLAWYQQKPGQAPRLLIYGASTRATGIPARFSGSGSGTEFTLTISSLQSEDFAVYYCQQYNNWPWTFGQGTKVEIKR
notes: Fab
In the case of B15, the Kd was 78 nM in test [1] and 133 nM in test [2].

B16: Anti-CD38-UCP02-D5 Fab (Fab, V domains shown)
VH: QVQLVQSGAEVKKPGSSVKVSCKASGGIFSVHAIHWVRQAPGQGLEWMGEIIPVIGEADYAQKFQGRVTITADESTSTAYMELSSLRSEDTAVYYCAREQYYYALGGGFDYWGQGTLVTVSS
VL: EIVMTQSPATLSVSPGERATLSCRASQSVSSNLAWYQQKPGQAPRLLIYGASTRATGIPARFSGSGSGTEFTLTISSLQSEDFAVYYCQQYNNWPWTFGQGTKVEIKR
notes: Fab
For B16, the dissociation constant (Kd) in test [1] turned out to be 33.5 nM; in test [2], 192 nM.

B17: Anti-CD38-UCP02-A7 Fab (Fab, V domains shown)
VH: EVQLLESGGGLVQPGGSLRLSCAASGFTFSFYDMSWVRQAPGKGLEWVSTITLHGGDTYYADSVKGRFTISRDNSKNTLYLQMNSLRAEDTAVYYCARDPSYIYSTSGYFDYWGQGTLVTVSS
VL: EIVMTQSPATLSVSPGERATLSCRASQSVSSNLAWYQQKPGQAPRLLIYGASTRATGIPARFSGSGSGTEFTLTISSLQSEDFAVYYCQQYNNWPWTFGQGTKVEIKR
notes: Fab
Regarding B17, the affinity in test [2], expressed as Kd, was 71.1 nM.

B18: Anti-CD3-C1-UCP01-H9 IgG1LALA (antibody, V domains shown)
VH: QVQLVQSGAEVKKPGSSVKVSCKASGGKFSRYAISWVRQAPGQGLEWMGGISPHVGYAEYAQKFQGRVTITADESTSTAYMELSSLRSEDTAVYYCARYGYSLYMDIWGQGTLVTVSS
VL: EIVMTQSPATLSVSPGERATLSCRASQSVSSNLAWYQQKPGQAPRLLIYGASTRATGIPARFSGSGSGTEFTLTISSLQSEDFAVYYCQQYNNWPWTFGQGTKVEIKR
notes: IgG1 LALA
On to B18, for which the “MFI at 800 nM” value in test [3] is 133000 MFI.

B19: Anti-CD3-C1-UCP01-C11 IgG1LALA (antibody, V domains shown)
VH: QVQLVQSGAEVKKPGSSVKVSCKASGGKFSRYAISWVRQAPGQGLEWMGGINPHVGAPEYAQKFQGRVTITADESTSTAYMELSSLRSEDTAVYYCARYGYSLYMDIWGQGTLVTVSS
VL: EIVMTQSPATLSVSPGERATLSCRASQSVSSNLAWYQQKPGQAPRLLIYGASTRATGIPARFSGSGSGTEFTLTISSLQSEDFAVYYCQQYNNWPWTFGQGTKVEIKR
notes: IgG1 LALA
With B19, the “MFI at 800 nM” value in test [3] came out at 119000 MFI.

B20: Anti-CD3-C1-UCP01-B6 IgG1LALA (antibody, V domains shown)
VH: QVQLVQSGAEVKKPGSSVKVSCKASGGKFSRYAISWVRQAPGQGLEWMGGISPYQGYASYAQKFQGRVTITADESTSTAYMELSSLRSEDTAVYYCARYGYSLYMDIWGQGTLVTVSS
VL: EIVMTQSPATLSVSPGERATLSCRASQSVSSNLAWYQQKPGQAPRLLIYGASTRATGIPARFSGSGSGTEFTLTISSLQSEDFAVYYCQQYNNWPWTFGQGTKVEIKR
notes: IgG1 LALA
On to B20, for which, in test [3], the “MFI at 800 nM” value turned out to be 109000 MFI.

B21: Anti-CD38-UCP02-B1 Fab (Fab, V domains shown)
VH: QVQLVQSGAEVKKPGSSVKVSCKASGGQFSFYAINWVRQAPGQGLEWMGEIIPDYGVTHYAQKFQGRVTITADESTSTAYMELSSLRSEDTAVYYCARWSYTYGIRYYYKLFDPWGQGTLVTVSS
VL: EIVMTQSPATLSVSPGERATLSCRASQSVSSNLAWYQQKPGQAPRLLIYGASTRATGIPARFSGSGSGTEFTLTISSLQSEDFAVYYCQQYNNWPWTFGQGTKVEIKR
notes: Fab
Take B21: binding in test [2] was put at a Kd of 595 nM.

B22: Anti-CD38-UCP02-B7 Fab (Fab, V domains shown)
VH: EVQLVESGGGLVKPGGSLRLSCAASGFSFNEAWMTWVRQAPGKGLEWVGRIKSYSDGGYTGYAAPVKGRFTISRDDSKNTLYLQMNSLKTEDTAVYYCARSPGIPYHYFDVWGQGTLVTVSS
VL: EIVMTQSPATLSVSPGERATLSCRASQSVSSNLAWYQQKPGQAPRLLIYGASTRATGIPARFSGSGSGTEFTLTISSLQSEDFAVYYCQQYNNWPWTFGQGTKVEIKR
notes: Fab
In test [2], B22 displayed a Kd of 1710 nM.

B23: Anti-CD38-UCP03-C3 Fab (Fab, V domains shown)
VH: QVQLVQSGAEVKKPGSSVKVSCKASGGKFSNYAISWVRQAPGQGLEWMGRIIPQIGDAAYAQKFQGRVTITADESTSTAYMELSSLRSEDTAVYYCARASFLYYSYYFDYWGQGTLVTVSS
VL: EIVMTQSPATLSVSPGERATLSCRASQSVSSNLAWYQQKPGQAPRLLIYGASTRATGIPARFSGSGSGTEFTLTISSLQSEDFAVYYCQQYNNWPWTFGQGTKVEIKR
notes: Fab
With B23, the figures for the Kd in test [1] and in test [2] were 465 nM and 117 nM, respectively.

B24: Anti-CD38-UCP03-C2 Fab (Fab, V domains shown)
VH: QVQLVQSGAEVKKPGSSVKVSCKASGGTFSNYAISWVRQAPGQGLEWMGGIIPAFGDAGYAQKFQGRVTITADESTSTAYMELSSLRSEDTAVYYCARGRVLYYSYYFDYWGQGTLVTVSS
VL: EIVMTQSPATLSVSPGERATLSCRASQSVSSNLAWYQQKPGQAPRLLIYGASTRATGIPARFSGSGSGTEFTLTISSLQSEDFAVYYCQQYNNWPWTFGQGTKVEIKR
notes: Fab
With B24, the equilibrium dissociation constant (Kd) in test [1] worked out at 628 nM; in test [2], 1390 nM.

B25: Anti-CD38-UCP02-C3 Fab (Fab, V domains shown)
VH: QVQLVQSGAEVKKPGSSVKVSCKASGDYFNNYAINWVRQAPGQGLEWMGRIIPFLDDANYAQKFQGRVTITADESTSTAYMELSSLRSEDTAVYYCARATSPLYSYYFDYWGQGTLVTVSS
VL: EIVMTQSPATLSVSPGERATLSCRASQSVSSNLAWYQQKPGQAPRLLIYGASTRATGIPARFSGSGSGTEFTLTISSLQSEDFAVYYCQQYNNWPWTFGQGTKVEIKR
notes: Fab
Regarding B25, the Kd in test [1] is 188 nM; in test [2], 305 nM.

B26: Anti-CD38-UCP02-F6 Fab (Fab, V domains shown)
VH: EVQLLESGGGLVQPGGSLRLSCAASGFTFSFYDMSWVRQAPGKGLEWVSAVSLYGDETYYADSVKGRFTISRDNSKNTLYLQMNSLRAEDTAVYYCAREPVSYDYYGSYFDYWGQGTLVTVSS
VL: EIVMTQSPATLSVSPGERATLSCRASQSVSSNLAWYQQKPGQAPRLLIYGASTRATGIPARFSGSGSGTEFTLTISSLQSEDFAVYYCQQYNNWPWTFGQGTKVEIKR
notes: Fab
In the case of B26, in test [2], the affinity, expressed as Kd, was 389 nM.

B27: Anti-CD38-UCP03-H5 Fab (Fab, V domains shown)
VH: QVQLVQSGAEVKKPGSSVKVSCKASGGLFSFYAISWVRQAPGQGLEWMGGIIPFFGEPQYAQKFQGRVTITADESTSTAYMELSSLRSEDTAVYYCARGSYRFDVWGQGTLVTVSA
VL: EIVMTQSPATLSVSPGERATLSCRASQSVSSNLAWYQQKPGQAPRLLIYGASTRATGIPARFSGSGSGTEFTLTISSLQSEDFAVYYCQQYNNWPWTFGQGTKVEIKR
notes: Fab
B27: the Kd in test [1] was determined as 11 nM; in test [2], 142 nM.

B28: Anti-CD38-UCP03-A6 Fab (Fab, V domains shown)
VH: QVQLVQSGAEVKKPGSSVKVSCKASGGDFSLYAISWVRQAPGQGLEWMGGIIPLLGEPVYAQKFQGRVTITADESTSTAYMELSSLRSEDTAVYYCARGHRVYSSSPFDYWGQGTLVTVSS
VL: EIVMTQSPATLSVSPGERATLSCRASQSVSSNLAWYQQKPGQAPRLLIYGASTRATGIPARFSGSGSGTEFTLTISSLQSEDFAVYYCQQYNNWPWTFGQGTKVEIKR
notes: Fab
On to B28, for which the Kd in test [1] came to 525 nM; in test [2], 410 nM.

B29: Anti-CD38-UCP01-D1 Fab (Fab, V domains shown)
VH: QVQLVQSGAEVKKPGSSVKVSCKASGGIFNGYLISWVRQAPGQGLEWMGGIIPVNGLADYAQKFQGRVTITADESTSTAYMELSSLRSEDTAVYYCARTIGRYIIAFDYWGQGTLVTVSS
VL: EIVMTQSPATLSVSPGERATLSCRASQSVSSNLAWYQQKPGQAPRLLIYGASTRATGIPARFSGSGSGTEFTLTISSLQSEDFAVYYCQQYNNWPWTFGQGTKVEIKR
notes: Fab
As for B29, the binding result in test [1] is recorded as “no binding”. The same molecule gave a Kd in test [2] of 666 nM.

The record behind these values is patent publication US20240132615A1 (ICHNOS SCIENCES, published 2024).
